Experimental data reported in publication PMC5384220 (2017).

Target: T1, His-KDM4A_(1–359)-Bio (human, UniProt O75164 1-359, biotin on the AviTag (>95% biotinylation))
T1 chain: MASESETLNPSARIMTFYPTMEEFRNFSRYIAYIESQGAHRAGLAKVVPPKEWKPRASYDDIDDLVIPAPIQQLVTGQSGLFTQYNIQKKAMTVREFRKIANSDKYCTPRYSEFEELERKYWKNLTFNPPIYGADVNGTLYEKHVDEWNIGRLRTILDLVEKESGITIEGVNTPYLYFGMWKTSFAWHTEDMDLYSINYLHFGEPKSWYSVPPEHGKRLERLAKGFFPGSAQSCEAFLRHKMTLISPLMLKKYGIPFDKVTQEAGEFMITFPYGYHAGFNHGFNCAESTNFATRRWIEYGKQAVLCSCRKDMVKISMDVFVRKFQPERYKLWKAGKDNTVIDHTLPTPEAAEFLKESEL
Assay: BLI

Kd: 110 µM
Binder: ARTKQTARKSTGGKA (trimethyl-lysine at 9) [H3(1–15)K9me3]
